Consider 18 sequences from the DeepSol protein solubility set.

A short description of the data set: soluble on expression in E. coli; label from the status in PepcDB or PDB records.
With “MSLAESPLEIHVIADSTGETAVRLARAARSQFEGVHWHIVRHPMIGTVPEMVSALEAVSEAHEAGQWVCVVHTLVLPDMRRMVSDACEEMGIRELDLMGPMLEAMEEASGLDADAVPRRPVGVEADYFTRISAMEFAVRNDDGAIPDRLTEADICLVGVSRSGKTPLSIYLGYLGYKTVNVPLVPGIAPPTELAAVDRWRIVGLTIDAQRLLEIRGRRVRGLGGFGNEDGYADLAAIYEELDEVGKIQRRLGCPIIDTTGLALEESATKVIDVVDQRAKTAGTRLRKPAGSYRMRPEGHHHHHH”, the “soluble on expression in E. coli” value is recorded as “soluble”. The entry for “MSLAETWDMPLAYSGSNFHSVTAAEFGNCVTTGTGGEIEIVTHPSGSLFKGADIKRAVQTGQAPIGERLLSGHQNENALFGFDSVPFLATSFDDADKLWKAAKEPLSALLAEQNLTLLYSVPWPPQGLYFKNEVNAVADMKGIKFRSYNNATSRLAELTGMLPVTIEAAEISQAFATGVADSMISSGSTGYDRKVWESLNYFYEVDAWLPRNYVFVNSDVWSGVSDQNKNVIQACAGLAEYAGNWRSKEYTGFTLQGLRDGGMTVGPASDQLVGELKEIGVTMTSEWLEAAGDQGKAIVDAFKAEGHHHHHH” is “not soluble”; for “MSLAEYKHILVGVDGSRQAKRALDKAIAVALRNQAELIIVTIMSGGDYVGLGNNTQVGFGYVDQQVMDESRQALEALVDQYRQKAQEAGVERVVTSVFYGHAKVDLAKSLPKEYQADLIMLGATGVNVVERMLLGSTASYVVANAVCDVLVVRTDLHNEGHHHHHH” it is “soluble”.

“MSLAIKLIAIDMDGTLLLPDHTISPAVKNAIAAARARGVNVVLTTGRPYAGVHNYLKELHMEQPGDYCITYNGALVQKAADGSTVAQTALSYDDYRFLEKLSREVGSHFHALDRTTLYTANRDISYYTVHESFVATIPLVFCEAEKMDPNTQFLKVMMIDEPAILDQAIARIPQEVKEKYTVLKSAPYFLEILDKRVNKGTGVKSLADVLGIKPEEIMAIGDQENDIAMIEYAGVGVAVDNAIPSVKEVANFVTKSNLEDGVAFAIEKYVLNEGGSHHHHHH”: the “soluble on expression in E. coli” value is “soluble”. For “MSLAKDKDTLDFIRNLCQKRHVCIQSSLAKVSSKKVNEKDVDKFLLYQHFSCNIRNIHHHQILAINRGENLKVLTVKVNISDGVKDEFCRWCIQNRWRPRSFARPELMKILYNSLNDSFKRLIYPLLCREFRAKLTSDAEKESVMMFGRNLRQLLLTSPVPGRTLMGVDPGYKHGCKLAIISPTSQILHTDVVYLHCGQGFREAEKIKTLLLNFNCSTVVIGNGTACRETEAYFADLIMKNYFAPLDVVYCIVSEAGASIYSVSPEANKEMPGLDPNLRSAVSIARRVQDPLAELVKIEPKHIGVGMYQHDVSQTLLKATLDSVVEECVSFVGVDINICSEVLLRHIAGLNANRAKNIIEWREKNGPFINREQLKKVKGLGPKSFQQCAGFIRINQDYIRTFCSQQTETSGQIQGVAVTSSADVEVTNEKQGKKKSKTAVNVLLKPNPLDQTCIHPESYDIAMRFLSSIGGTLYEVGKPEMQQKINSFLEKEGMEKIAERLQTTVHTLQVIIDGLSQPESFDFRTDFDKPDFKRSIVCLEDLQIGTVLTGKVENATLFGIFVDIGVGKSGLIPIRNVTEAKLSKTKKRRSLGLGPGERVEVQVLNIDIPRSRITLDLIRVLEGHHHHHH”, the “soluble on expression in E. coli” value was “soluble”. Take “MSLAKPKVIVPMVTPLRGGSVDKNAASWLASRLSESGVDGVFVPGTTGEWYLLDPHERAEAFFAVASSAIAGLRLVAGVSGYRPEESYRLAEEAAGHGAHAVMAVPPIYFRPSTDFLREFYGEIKRRAGGLPTYIYIFPERMGYTLAVEQVESLVEAGVVDGIKATVTDAAYIAGLAAVKERNPEFEVLAGGLEMLVHTSLSGGDGVVDAYSNVAPKLAVELAESLEKGSVERVAGLQGRVLKLSRILGKRSLPAVLKAVLHVLGAPITGEVRKPLKPLTQPEANATANALCTSYRDYLLPGEGHHHHHH”: the “soluble on expression in E. coli” value was “soluble”. The entry for “MSLAMNNILGLFAHSPLKPLQKHSEKVTECSDLLIPFFQTTFSKNWEQAEEKRLEISQCEREADSLKREIRLKLPRGLFLPIDRTDLLELVTQQDKLANYAKDIAGRMIGRQFGIPEEMQEEFLHYVKRSLDAIHQAHRVIEEMDKLLETGFKGRELKLVNDMIQELDSIEDDTDQMQIKLRKMLYTIESRYNPIDVMFLYKIIEWVGVLADQAQRVGSRIELMLARSEGHHHHHH” is “soluble”. Turning to “MSLANAFGKEKNIKEFYALKGVSFEISKGECVGIIGHNGAGKSTLLKLLTGVAFPTSGEIEINGRLASMLELGSGFNPELTGMENIYFNGSLNGLTKEEIDGKLKDILEFADIGNFIEQPVKNYSSGMFARLAFAVAINVDPDILIVDEILSVGDVGFQVKCMEKFNEFKKKGKTILYVSHGLGTVKKFCDRAIWLQKGEVVDDGNSVIVVERYYNLNFNPANIEQLKDHKSDIINSIAVKSNTKNVEYLEKLDLEVEYDLISNDLKDPNIVLEFRKTDYEPGTTRGNDQFVCGINSKDNIKNIPFNLGVNKLKVSLNKVNLVAGVYYIDFVLRDGEEEVYRKINGYSFTLNDKYRGEGFLILGHSWGNEGHHHHHH”, the “soluble on expression in E. coli” value is “not soluble”. The entry for “MSLANILAIDDSGLMQAFWVRILSRSQHNVITVSSGDEMRGVLATMNPQLIFLDLSFPGENGFELLQHIRSYQHCLEIPVIAVSGYAGEDTRQACREAGFTDFLAKPFSLAELRGMLARYLDHATEGHHHHHH” is “not soluble”.

“MSLANRKYFGTDGVRGKVGAYPITPDFALKLGWAAGKVLASQGSKMVLIGKDTRISGYMLESALEAGLAAAGLSAAFTGPMPTPAIAYLTRTFRAEAGIVISASHNPYYDNGIKFFSAKGTKLPDEIEEAIEAMLEQPMDCVESAELGKASRINDAAGRYIEFCKGTFPAHLGLEGYKIVVDCANGATYHIAPNVLRELGAEVIEIGTDPNGLNINEKCGATDVTALQAKVVETKADVGLAYDGDGDRIMMVDHLGNKVDGDQILFIIAREALRSGQLKGGVVGTLMSNMSLEIALKMLGVPFLRANVGDRYVLEKMVENDWTLGGENSGHIIIADKNTTGDGIVASLAVLAAMAQHKLSLNELASAVKLFPQVLINVRFAGGENPLESDAVKSVAAEVEKRLEGKGRILLRKSGTEPLIRVMVECQDAELAQQCAEEIAEAVKKEGHHHHHH”: the “soluble on expression in E. coli” value is “soluble”.

For the sequence “MSLAPNPYLTGRTLNIAHQGGEALWPSNTLTAYRGAVALGVDLLEMDLHATRDGALVLSHDATLDRLTDTQGRIADLTLEQVLRADAGYTLTPAGGSGFPFRGQGVQVAQLKDVLREFPNTPLIIELKQASPSIAAPFCAELRRAGATGRVIAASFSDAALNEFRRLCPEVMTSMTERELRPLVLLSKVGLSALAPTPGQVAQVPVRSGGIEIVTPAFVRALHARGVAVQVWTIDDEAEMRRLVQMGVDGVITNRPDLLKKVLAEREGHHHHHH”, the “soluble on expression in E. coli” value is reported as “not soluble”. As for “MSLAQEIALTPQPAHLTVKDGRFEFGNQLKAKVTPYQGDSIRMVFESFKKELQEATGIKVSSTQKEAKARIILDLNPQLPAEAYKLNVSKKQVRIEASRPAGFYYALQTLKQLMPRNVMAGVATSDHSQWSLPSVEIEDAPRFEWRGFMLDEGRHFFGKDEIKRVIDMMAIYKMNRFHWHLTEDQGWRIEIKKYPKLTETGAWRNSKVLAYGDVKPDGERYGGFYTQKDIKEIVAYAKKKFIEIIPEIDIPGHSQAAVAAYPEFLACDPRDKHEVWLQQGISTDVINVANPKAMQFAKEVIDELTELFPFNYIHLGGDECPTRKWQKNDECKKLLSEIGSSNFRDLQIYFYKQLKDYIATKPADQQRQLIFWNEVLHGNTSILGNDITIMAWIGANAAAKQAAKQGMNTILSPQIPYYINRKQSKLPTEPMSQGHGTETVEAVYNYQPLKDVDAALQPYYKGVQANFWTEWVTEPSVLEYLMLPRLAAVAEAGWTPQEKRNYEDFKERIRKDAELYDLKGWNYGKHIMKEGHHHHHH”, the “soluble on expression in E. coli” value was “soluble”. With “MSLAQGANAPLNIPANPQMFGTNDPNVRRATAIVNGEIITGTDVEQRLALIVSANGGKIDGEEKERLRMQVLRNLIDETLQIQEAKAADVPADDGQVDASYERVATQNFGQSADALEKYLARIGSSAASLKRQIRGEIAWQNLLRRNVQPFVNVSEGEVQEAMQRLQASKGTEEYRIGEIFLAATEENKPQVFANAEKIVEQLKQGGSFVAYARQYSEASTAAVGGDLGWIRLAQLPTELATTAASMGPGQLAGPVEIRGGFSILYLIDKREGHHHHHH”, the “soluble on expression in E. coli” value is listed as “soluble”.

With “MSLAQIDSLFVTRLYRAALSEHGPKIDPQEMEASCIAIAEDDEAGQDWCEENGYPGYTSYASLTDLPWRFPIFADLVKSLDAHVAAFAQDLELNLDGRDLKLEDLWINILPEGGTHASHIHPHSVISGTTYVSMPDGASALKLEDPRHAMMMAHPPRTKDCRRELRSFVYEAPNVGDVLLWESFIRHEVPMNMAEDERISVSFNYAWAEGHHHHHH”, the “soluble on expression in E. coli” value is recorded as “soluble”. As for “MSLAQISKYKRVVLKLSGEALAGEKGFGINPVIIKSVAEQVAEVAKMDCEIAVIVGGGNIWRGKTGSDLGMDRGTADYMGMLATVMNALALQDSLEQLDCDTRVLTSIEMKQVAEPYIRRRAIRHLEKKRVVIFAAGIGNPYFSTDTTAALRAAEVEADVILMGKNNVDGVYSADPKVNKDAVKYEHLTHIQMLQEGLQVMDSTASSFCMDNNIPLTVFSIMEEGNIKRAVMGEKIGTLITKEGHHHHHH”, the “soluble on expression in E. coli” value is reported as “soluble”. Regarding “MSLAQLGRFWHISDLHLDPNYTVSKDPLQVCPSAGSQPVLNAGPWGDYLCDSPWALINSSLYAMKEIEPKPDFILWTGDDTPHVPNESLGEAAVLAIVERLTNLIKEVFPDTKVYAALGNHDFHPKNQFPAQSNRIYNQVAELWRPWLSNESYALFKRGAFYSEKLPGPSRAGRVVVLNTNLYYSNNEQTAGMADPGEQFRWLGDVLSNASRDGEMVYVIGHVPPGFFEKTQNKAWFRESFNEEYLKVIQKHHRVIAGQFFGHHHTDSFRMFYDNTGAPINVMFLTPGVTPWKTTLPGVVDGANNPGIRIFEYDRATLNLKDLVTYFLNLRQANVQETPRWEQEYRLTEAYQVPDASVSSMHTALTRIASEPHILQRYYVYNSVSYNHLTCEDSCRIEHVCAIQHVAFNTYATCLHGLGAKLVPGEGHHHHHH”, the “soluble on expression in E. coli” value is given as “not soluble”.

“MSLAQQSYPNKPIRVIVPFAAGSTTDIIARAIADKMGQSMGQSLVVDNRSGASGTIGQQAVATAPADGYTLMVHSSSHTVSPSTFAKLPFDTQADFAGVTPISSLPNALVIAPAKNIRTLQALLAAARARPGSINFASAGQGSATHLNAEKFRLAARIEATNIPFKGSAEAVTEVLSGRVDYYFSPIAPVIGQIRDGQLLALAVGSPKRAAALPEVPTTAEAGVPGSEFNFWIGMMAPAKTPRAIVERLHDEVVKALATPEVKERFLKLGADAWTLRPEQFDAYIKQEIASNAQLVQAAGLQVPQEGHHHHHH”: the “soluble on expression in E. coli” value was “soluble”.

Consider “MSLARTPNGGAIACSDAAALGKDELFWGALFRGLNRGGSFLQLQIRQIIVTAIEDGRLPLGMKMPSSRDLATVLKVSRNTVVIAYEQLVDQNFLVSRQRSGYFVAGLPKKFATEAPGLAEVTSRGDEHWVDRFAVRPSAHRNIVKPLDWQTHPYPFIFGQFDPSLFPTNDWRESARAALSVPEINNWARDLIDGDDPALIEQLQLQVLPRRGIHARADEIMMTIGAQHALYLIATLFINGQTKVGIEEPGYPDARNIFRMLTPNVVPLSVDSEGVVPDAMFQSCALAYVTSSHQCPTAVTMPLPRRIELLKAAATGDVVVVEDDYEGELMPESATLPPLKSIDRASNVLYVGSLSKALAPGLRLGYVVAPAPVIRELRALRRLMLRHPPLNNQRVAALFIGLGHYRAHLAQVGRVLLERAKLLDQLLPKHLPSCSFSRGPGSTNFWVTCPTSIDATALAEAALEQGVVIEPGAVFSMDETASRHCFRLGFSSIRTDRIEVGIQRLGEVIAQHLKAEGHHHHHH”, for which the “soluble on expression in E. coli” value is reported as “soluble”.
